Source: paper PMC4900556, “Connexin43 Forms Supramolecular Complexes through Non-Overlapping Binding Sites for Drebrin, Tubulin, and ZO-1” (PLoS ONE, 2016)

Tests used:
[1] = biological target: 15N-labeled Cx43CT^234-382 Y265D, GST tag cleaved (UniProt P08050 234-382, Y265D, 15N-labeled); assay: NMR; Area 3 (residues K303, N312, S314)
[2] = biological target: 15N-labeled Cx43CT^234-382 Y265D, GST tag cleaved (UniProt P08050); assay: NMR titration; 15N-HSQC, 600 MHz; 15N-labeled Cx43-CT constant at 50 μM in 1X PBS pH 7.5, unlabeled Drb^1-300 added from 50 to 700 μM; KD by nonlinear fitting of the decrease in signal intensity of at least three residues of each area
[3] = biological target: T1, 15N-labeled Cx43-CT^234-382 (WT), GST tag cleaved (UniProt P08050 234-382, 15N-labeled); assay: as above; conditions: both partners purified
T1 construct: Construct used in the NMR titrations; source: E. coli BL21 DE3, purified (glutathione agarose), GST tag cleaved on the beads with Turbo 3C
T1 sequence (P08050 234-382): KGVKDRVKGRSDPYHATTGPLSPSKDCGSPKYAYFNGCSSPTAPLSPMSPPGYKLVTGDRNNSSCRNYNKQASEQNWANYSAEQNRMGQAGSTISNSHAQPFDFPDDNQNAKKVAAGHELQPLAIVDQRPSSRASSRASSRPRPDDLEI

Sequence of 15N-labeled Cx43CT^234-382 Y265D, GST tag cleaved (UniProt P08050) (P08050 234-382 Y265D): as the sequence (P08050 234-382) above, with Y32D counted along it

- Kd [1]: 466 µM
- KD of Area 3 [2]: 500 µM
- KD of Area 1 (264–275) [3]: 283 µM
- KD of Area 2 (282–290) [3]: 279 µM
- KD of Area 3 (299–321) [3]: 344 µM
B1: Drebrin A 1–300 (Drb^1-300), untagged (domain or fragment, UniProt Q9QXS6 1-300, looked up)
chain: MAGVSFSGHRLELLAAYEEVIREESAADWALYTYEDGSDDLKLAASGEGGLQELSGHFENQKVMYGFCSVKDSQAALPKYVLINWVGEDVPDARKCACASHVAKVAEFFQGVDVIVNASSVEDIDAGAIGQRLSNGLARLSSPVLHRLRLREDENAEPVGTTYQKTDAAVEMKRINREQFWEQAKKEEELRKEEERKKALDARLRFEQERMEQERQEQEERERRYREREQQIEEHRRKQQSLEAEEAKRRLKEQSIFGDQRDEEEESQMKKSESEVEEAAAIIAQRPDNPREFFRQQERV
notes: Drebrin A residues 1-300; also called drebrin amino acids 1–300; N-terminal fragment of drebrin; source: E. coli Rosetta cells, purified on glutathione-agarose column, GST tag digested and captured with a Thrombin kit
